{"source": "paper PMC3413214", "about": "“Structural and biochemical characterization of a trapped coenzyme A adduct of Caenorhabditis elegans glucosamine-6-phosphate N-acetyltransferase 1” (Acta Crystallographica Section D: Biological Crystallography, 2012)", "proteins": {"B1": {"name": "CeGNA1 (Caenorhabditis elegans) (protein)", "chain": "MSHIFDASVLAPHIPSNLPDNFKVRPLAKDDFSKGYVDLLSQLTSVGNLDQEAFEKRFEAMRTSVPNYHIVVIEDSNSQKVVASASLVVEMKFIHGAGSRGRVEDVVVDTEMRRQKLGAVLLKTLVSLGKSLGVYKISLECVPELLPFYSQFGFQDDCNFMTQRF", "notes": "full-length, 165 residues; GST fusion from pGEX-6P-1 in E. coli BL21(DE3) pLysS, GST cut with PreScission protease; homodimer; 18 876 Da by MALDI"}, "B2": {"name": "CeGNA1 (Caenorhabditis elegans; C141S) (protein)", "chain": "B1 chain with C141S", "notes": "as for B1"}}, "substrate": "CC(=O)SCCNC(=O)CCNC(=O)[C@H](O)C(C)(C)COP(=O)(O)OP(=O)(O)OC[C@H]1O[C@@H](n2cnc3c(N)ncnc32)[C@H](O)[C@@H]1OP(=O)(O)O", "experiment": "purified protein", "format": "biochemical, Caenorhabditis elegans", "details": "GlcN-6P constant, 25 mM Tris-HCl pH 7.5, 250 mM NaCl, 2 mM EDTA, 5% glycerol, 293 K, 20.0 °C", "note": "Where a chain is given by its changes, count along the chain named. Names and notes keep the numbering of the source.", "data": [{"protein": "B1", "values": [{"measurement": "Km", "setting": "3 nM enzyme", "value": "192 ± 16", "unit": "µM"}, {"measurement": "kcat", "setting": "3 nM enzyme", "value": 252, "unit": "s⁻¹"}, {"measurement": "kcat/Km", "setting": "3 nM enzyme", "value": "1.3e+06", "unit": "M⁻¹ s⁻¹"}]}, {"protein": "B2", "values": [{"measurement": "Km", "setting": "10 nM enzyme", "value": "261 ± 33", "unit": "µM"}, {"measurement": "kcat", "setting": "10 nM enzyme", "value": 48, "unit": "s⁻¹"}, {"measurement": "kcat/Km", "setting": "10 nM enzyme", "value": 200000, "unit": "M⁻¹ s⁻¹"}]}]}
